Results reported in patent publication US20050222029A1 (MYRIAD GENETICS, published 2005).

Columns and labels:
Experiment in all cases: yeast two-hybrid
[1] = target: T1, Serum deprivation response 75-258 (human, UniProt O95810 75-258)
T1 construct: prey (Gal4 AD-HA fusion)
T1 sequence (looked up): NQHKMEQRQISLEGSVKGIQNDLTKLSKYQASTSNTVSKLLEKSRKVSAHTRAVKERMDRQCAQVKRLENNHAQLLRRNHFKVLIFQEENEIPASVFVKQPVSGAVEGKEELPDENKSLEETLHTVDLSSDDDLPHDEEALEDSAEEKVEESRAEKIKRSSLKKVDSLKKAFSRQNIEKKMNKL

[2] = target: T2, Intersection 1 387-611 (human, UniProt Q15811 387-611)
T2 construct: prey (Gal4 AD-HA fusion); also called Intersectin 1; ITSN1
T2 sequence (looked up): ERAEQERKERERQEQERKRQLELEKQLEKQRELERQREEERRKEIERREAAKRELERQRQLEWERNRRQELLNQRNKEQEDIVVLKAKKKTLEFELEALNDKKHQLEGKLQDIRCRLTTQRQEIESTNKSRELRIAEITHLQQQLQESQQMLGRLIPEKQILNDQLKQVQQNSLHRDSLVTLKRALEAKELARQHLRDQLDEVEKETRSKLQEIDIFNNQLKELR

[3] = target: T3, Pallid 21-172 (human, UniProt Q9UL45 21-172)
T3 construct: prey (Gal4 AD-HA fusion)
T3 sequence (looked up): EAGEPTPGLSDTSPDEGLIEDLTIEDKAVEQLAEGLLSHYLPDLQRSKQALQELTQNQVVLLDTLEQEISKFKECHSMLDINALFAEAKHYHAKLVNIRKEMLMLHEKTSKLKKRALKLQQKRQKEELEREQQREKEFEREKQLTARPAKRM

[4] = target: T4, GTPase-activiating protein 1 1308-1606 (human, UniProt P46940 1308-1606)
T4 construct: prey (Gal4 AD-HA fusion); also called IQGAP1; IQGAP
T4 sequence (looked up): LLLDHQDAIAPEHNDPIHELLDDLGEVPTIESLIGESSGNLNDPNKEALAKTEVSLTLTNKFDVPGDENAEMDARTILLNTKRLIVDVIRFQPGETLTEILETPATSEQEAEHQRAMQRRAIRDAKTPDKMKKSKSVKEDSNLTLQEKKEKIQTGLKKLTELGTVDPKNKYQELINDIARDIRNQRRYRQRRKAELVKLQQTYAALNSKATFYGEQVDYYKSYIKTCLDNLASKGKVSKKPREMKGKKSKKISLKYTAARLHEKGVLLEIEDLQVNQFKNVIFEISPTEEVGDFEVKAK

[5] = target: T5, Intersection 1 210-633 (human, UniProt Q15811 210-633)
T5 construct: prey (Gal4 AD-HA fusion); also called Intersectin 1; ITSN1
T5 sequence (looked up): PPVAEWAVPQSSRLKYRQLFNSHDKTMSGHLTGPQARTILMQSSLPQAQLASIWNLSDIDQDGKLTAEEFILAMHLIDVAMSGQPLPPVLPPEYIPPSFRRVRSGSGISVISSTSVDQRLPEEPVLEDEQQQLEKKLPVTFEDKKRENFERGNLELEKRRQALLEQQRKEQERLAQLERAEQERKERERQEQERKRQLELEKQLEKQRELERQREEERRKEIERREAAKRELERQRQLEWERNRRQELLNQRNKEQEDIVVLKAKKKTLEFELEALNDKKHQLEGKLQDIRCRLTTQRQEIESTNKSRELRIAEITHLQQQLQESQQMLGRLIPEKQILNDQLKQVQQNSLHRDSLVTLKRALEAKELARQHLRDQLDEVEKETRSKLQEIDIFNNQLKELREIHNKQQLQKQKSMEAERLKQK

[6] = target: T6, GTPase-activiating protein 1 1299-1555 (human, UniProt P46940 1299-1555)
T6 construct: prey (Gal4 AD-HA fusion); also called IQGAP1; IQGAP
T6 sequence (looked up): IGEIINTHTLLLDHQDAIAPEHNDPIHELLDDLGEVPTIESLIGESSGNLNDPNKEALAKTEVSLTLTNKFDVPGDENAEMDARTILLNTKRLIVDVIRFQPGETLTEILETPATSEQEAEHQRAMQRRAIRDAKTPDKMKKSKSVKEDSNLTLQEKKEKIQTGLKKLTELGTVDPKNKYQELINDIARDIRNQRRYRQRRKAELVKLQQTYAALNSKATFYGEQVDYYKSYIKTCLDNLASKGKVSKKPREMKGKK

[7] = target: T7, Keratin 8 147-406 (human, UniProt P05787 147-406)
T7 construct: prey (Gal4 AD-HA fusion)
T7 sequence (looked up): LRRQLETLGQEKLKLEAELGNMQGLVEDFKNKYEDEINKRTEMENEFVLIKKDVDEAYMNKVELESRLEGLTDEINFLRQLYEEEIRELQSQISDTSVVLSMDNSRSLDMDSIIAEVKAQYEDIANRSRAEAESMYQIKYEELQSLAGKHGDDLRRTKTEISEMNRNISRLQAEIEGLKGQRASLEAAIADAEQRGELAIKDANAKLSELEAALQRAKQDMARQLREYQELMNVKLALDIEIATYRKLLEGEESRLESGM

[8] = target: T8, Mitotic spindle coiled-coil related protein 701-1082 (human, UniProt Q96R06 701-1082)
T8 construct: prey (Gal4 AD-HA fusion)
T8 sequence (looked up): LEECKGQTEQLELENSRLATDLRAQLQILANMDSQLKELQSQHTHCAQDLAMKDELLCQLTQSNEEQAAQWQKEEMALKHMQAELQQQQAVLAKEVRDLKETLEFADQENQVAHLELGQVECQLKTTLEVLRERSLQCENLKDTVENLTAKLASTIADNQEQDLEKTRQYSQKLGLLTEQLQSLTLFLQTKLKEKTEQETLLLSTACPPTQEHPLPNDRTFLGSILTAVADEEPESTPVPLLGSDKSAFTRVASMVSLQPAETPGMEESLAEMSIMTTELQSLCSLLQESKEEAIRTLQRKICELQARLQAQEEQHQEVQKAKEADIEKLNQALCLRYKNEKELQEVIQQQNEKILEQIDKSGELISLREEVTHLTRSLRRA

[9] = target: T9, GTPase-activiating protein 1 1413-1567 (human, UniProt P46940 1413-1567)
T9 construct: prey (Gal4 AD-HA fusion); also called IQGAP1; IQGAP
T9 sequence (looked up): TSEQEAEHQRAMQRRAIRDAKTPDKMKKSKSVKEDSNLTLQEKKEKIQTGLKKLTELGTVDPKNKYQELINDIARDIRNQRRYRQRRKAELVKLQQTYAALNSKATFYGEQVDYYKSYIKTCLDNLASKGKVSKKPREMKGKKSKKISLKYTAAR

Measured: binding result

B1: Tumor Suppressor (TSG101) 240-391 (other, human, UniProt Q99816 240-390, looked up)
chain: WRMKEEMDRAQAELNALKRTEEDLKKGHQKLEEMVTRLDQEVAEVDKNIELLKKKDEELSSALEKMENQSENNDIDEVIIPTAPLYKQILNLYAEENAIEDTIFYLGEALRRGVIDLDVFLKHVRLLSRKQFQLRALMQKARKTAGLSDLY
notes: range 240-391; bait (Gal4 DBD fusion); also called TSG101 240-390
binds: all assays above
